Assay results from the supplement of paper PMC12764529.
± gives the half width of the 95% confidence interval.

Key:
[1] = folding stability dG unfold from chymotrypsin proteolysis; higher = more stable
Summary of the method: (§1)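 Sequencing followed digestion of designed mini-proteins with trypsin and chymotrypsin, each at 11 concentrations in threefold dilutions together with a no-protease condition. The mini-proteins were under 80 residues, had no cysteine, sat in a PA-tagged cDNA display construct, and were kept only if AlphaFold2 dimer inter-PAE was above 15. From the counts, Bayesian fitting gave K50, and unfolding free energy was derived against a sequence-predicted unfolded-state K50 and a shared folded-state K50, per protease or combined.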

[2] = folding stability dG unfold from trypsin proteolysis; higher = more stable
Summary of the method: as §1

[3] = folding stability dG unfold (combined trypsin and chymotrypsin); higher = more stable
Summary of the method: as §1

Row | Sequence | folding stability dG unfold [1] [kcal/mol] | folding stability dG unfold [2] [kcal/mol] | folding stability dG unfold [3] [kcal/mol]
1 | SAGGSAGGKAKIKKIEVELNEDGTLKVTAYDEETNEKITLEVKLPKPKPVYFDEEKLKEELEKKSAGGSAGG [r6_627_TrROS_Hall] | 0.963 ± 0.14 | -0.313 ± 0.19 | 0.629 ± 0.19
2 | SAGGSAGGKGKLVDEPPIRDPNNGKDVWAFIMDPDGRMEVYDPNEIEEIPLKPGQIMIFTPEDLSAGGSAGG [r6_627_TrROS] | 0.168 ± 0.34 | 0.757 ± 0.069 | 0.648 ± 0.16
3 | SAGGSAGGKISKEDLEKILEAIKEGKPITIVKVKVEKNENGEEVEKVEVIKTFTAEELKKLGIESAGGSAGG [r6_402_TrROS_Hall] | 1.61 ± 0.073 | 1.73 ± 0.14 | 1.43 ± 0.2
4 | SAGGSAGGKITPEMEKLKKEIADAIKKAFPNKDLKIEVIKIEKTKDGSVIIDIKIGDKIIRIKASAGGSAGG [r6_494_TrMRF] | 1.85 ± 0.12 | 2.58 ± 0.14 | 2.16 ± 0.19
5 | SAGGSAGGKKIKIEIIYDKENNKLYIYVVDENTKKVYRYEFNKNGKLIKVEPVKEVKPGEVIPLSAGGSAGG [r6_148_TrROS_Hall] | 2.49 ± 0.16 | 1.96 ± 0.15 | 2.32 ± 0.22
6 | SAGGSAGGKKKIKPPEVTIKIKNKDGSVFEAKITKVEYDEETKKLYLEIEIEVNGKKYKLTIELSAGGSAGG [r6_962_TrROS_Hall] | 4.49 ± 0.26 | 2.87 ± 0.16 | 4.16 ± 0.76
7 | SAGGSAGGKKKVKYYKIKEVKIEKDEDGNYTITVKVDGKTFTITIPKEKIKPGMKLKDIVIKIKSAGGSAGG [r6_255_TrROS_Hall] | 3.57 ± 0.038 | 1.91 ± 0.041 | 3.16 ± 0.11
8 | SAGGSAGGKKKYLVKITIKYVDKKTGKLVKEETITVEVSEEELEELLKKLPPGAEITKIEIYKLSAGGSAGG [r6_776_TrROS_Hall] | 3.58 ± 0.071 | 2.96 ± 0.13 | 3.4 ± 0.071
9 | SAGGSAGGKKLEELKEKLKKLKPKPELEVEIKIVMSKEEAEKLAKELEKLPNIKKVRVEILEPDSAGGSAGG [r6_284_TrROS_Hall] | -0.0934 ± 0.11 | -0.155 ± 0.069 | 0.0502 ± 0.17
10 | SAGGSAGGKKNNKPKPILVKIEIINKNGKKKVFTKEFKSLEEAKKFIEKALPKGYSAKIEIIPGSAGGSAGG [r6_289_TrMRF] | 3.36 ± 0.062 | 2.25 ± 0.2 | 3.18 ± 0.29
11 | SAGGSAGGKKPPKIKVIYIKADSPEALKKLKIKAKPGDTILIYVDGKLYRLTVIDGKIKIEELPSAGGSAGG [r6_550_TrROS_Hall] | 3.73 ± 0.065 | 2.12 ± 0.089 | 3.35 ± 0.14
12 | SAGGSAGGKKPVYEIEITTKDGSKLTIAVKEGEEVEIKITVNGKEISLEDITSIEIRPVELPEESAGGSAGG [r6_222_TrROS_Hall] | 1.84 ± 0.089 | 1.99 ± 0.16 | 1.94 ± 0.098
13 | SAGGSAGGKKTYRLEITIYNKDGKEIKKIEIEAETEEEALEAAKKLQEEAKKKGLKVEIKVEKVSAGGSAGG [r6_285_TrROS_Hall] | 4.7 ± 0.068 | 4.2 ± 0.21 | 4.72 ± 0.15
14 | SAGGSAGGKKVYPIPGATPNQFRELLDENKGTLKIYMPNGKQEEFPIKPGMEPIPGGPAWIERKSAGGSAGG [r6_304_TrROS] | -1.29 ± 0.85 | -0.834 ± 0.41 | -0.871 ± 0.36
15 | SAGGSAGGKLKINNEEIGPDKSFPLKKGKEIKVYKDYVKVFVIDPKTNKKKEYTIKLEDLKKLFSAGGSAGG [r6_940_TrMRF] | 1.39 ± 0.2 | 0.437 ± 0.073 | 1.05 ± 0.18
16 | SAGGSAGGKPDLLLEARTDLFGEEREAEVFYDPSPPVLTITLPDGTVITLPEEEVEIEKETPLISAGGSAGG [r6_185_JUSTAS] | -0.273 ± 0.065 | -0.297 ± 0.12 | -0.243 ± 0.28

Row | Sequence | folding stability dG unfold [1] [kcal/mol] | folding stability dG unfold [2] [kcal/mol] | folding stability dG unfold [3] [kcal/mol]
17 | SAGGSAGGKPIWEFELEFPDGYKIRITYWPGYVRVEIHNPDGRQLEVNVPGKSPEDALDALLDASAGGSAGG [r6_459_TrROS] | 4.19 ± 0.19 | 3.32 ± 0.22 | 3.88 ± 0.24
18 | SAGGSAGGKPKKVKIKIEITYNKETGVVKIKIEVEVDGKTYTIEIEVKLKPGQTIEELLKKLLESAGGSAGG [r6_20_TrROS_Hall] | 4.75 ± 0.34 | 2.84 ± 0.24 | 4.46 ± 0.54
19 | SAGGSAGGKPKTYIILVIEDPENDKYLALLFDENGKLIGTAPFKSIDELLEKLPKNVKVIVLPASAGGSAGG [r6_492_TrMRF] | 4.47 ± 0.11 | 3.6 ± 0.11 | 4.24 ± 0.1
20 | SAGGSAGGKPKVVELELTTEDGSKVRVVFTEDSVYIYNEETGLLVKYNLKTGKFELKEVYPLEESAGGSAGG [r6_462_TrROS_Hall] | 3.24 ± 0.055 | 2.15 ± 0.15 | 2.92 ± 0.28
21 | SAGGSAGGKPTYYVAEVTYPGNLKATVVVEDKDNLTFVIPDTGEVWDLTDLDDIKITPVSADDPSAGGSAGG [r6_222_TrMRF] | 0.95 ± 0.14 | 0.633 ± 0.033 | 0.8 ± 0.073
22 | SAGGSAGGKPVTVEVDIVVKPGDTIEFPPGAKVEIVEKKEVEVNGKKYQVFKIKVTLPPGEEALSAGGSAGG [r6_454_TrROS_Hall] | 2.854 ± 0.026 | 2.31 ± 0.12 | 2.72 ± 0.23
23 | SAGGSAGGKSPEDRQRENMKPVPPIEVVEIRIPIPPGMPIDQAKNIASNLMEHLGVDYVRIEITSAGGSAGG [r6_517_TrROS] | -0.478 ± 0.21 | 0.679 ± 0.038 | 0.297 ± 0.24
24 | SAGGSAGGKVTVDPAKVKAILTLKDGSKLIVLEDGVLLYNPKTEKVTLVSLSDLKKLPEDAPVPSAGGSAGG [r6_889_TrMRF] | 1.85 ± 0.026 | 1.61 ± 0.042 | 1.74 ± 0.054
25 | SAGGSAGGKWIHINPNSYNIKIQDPGSGKEEEIQFDSPEELIDEIKKQFPGVPVEIHPNGWFKISAGGSAGG [r6_288_TrROS] | 0.563 ± 0.11 | 0.385 ± 0.022 | 0.521 ± 0.091
26 | SAGGSAGGKYQEFEYMIMFPDGGMFRVKIEYSPNPGQVKIKIEFPGGEREITIPPGAPITIMPMSAGGSAGG [r6_927_TrROS] | 2.41 ± 0.054 | 3.17 ± 0.23 | 2.74 ± 0.23
27 | SAGGSAGGLEIVLPREELEELIRRGEIDEVEIERSEDDLVRARPIIRPPPPLPPEVGALLRALASAGGSAGG [r6_278_TrMRF] | 1.91 ± 0.088 | 0.891 ± 0.2 | 1.56 ± 0.37
28 | SAGGSAGGLGWGSFKLPFEFWDPANGMPMRNSINIMVIVIPPPPPKVEVEEDPDNGKKKVTYDDSAGGSAGG [r6_926_TrROS] | 3.31 ± 0.084 | 2.67 ± 0.1 | 2.95 ± 0.46
29 | SAGGSAGGLHPDEEFVVLFRIDVRARPVSPNAHPELKKKFPNAVIVEAKIDVLILPKEKVKELFSAGGSAGG [r6_830_TrMRF] | 3.44 ± 0.082 | 2.84 ± 0.1 | 3.18 ± 0.19
30 | SAGGSAGGLPEGDIYRIRVTLPNGNTFTITFPVKSVEQAKDFAKSFLESLGLPDVKVDIEPVPVSAGGSAGG [r6_844_TrROS] | 4.2 ± 0.044 | 3.53 ± 0.065 | 4 ± 0.074
31 | SAGGSAGGMEEIEIEINGKKAKIYRLPGDEDLFLIEVDGELYLVKVKKKDGKWEIVEVKKLDELSAGGSAGG [r6_915_TrROS_Hall] | 4.25 ± 0.091 | 4.17 ± 0.29 | 4.13 ± 0.16
